Assays:
[1] = target: fluorescein-labelled single cysteine mutant of arrestin-2 (arrestin-2-S234C on cysteine-less background) (bovine) (UniProt P17870); experiment: FRET or BRET
[2] = target: fluorescein-labelled single cysteine mutant of arrestin-3 (arrestin-3-L101C on cysteine-less background) (bovine) (UniProt P32120); experiment: FRET or BRET
UniProt P32120, sequence (P32120 whole entry L101C, stated change not applied): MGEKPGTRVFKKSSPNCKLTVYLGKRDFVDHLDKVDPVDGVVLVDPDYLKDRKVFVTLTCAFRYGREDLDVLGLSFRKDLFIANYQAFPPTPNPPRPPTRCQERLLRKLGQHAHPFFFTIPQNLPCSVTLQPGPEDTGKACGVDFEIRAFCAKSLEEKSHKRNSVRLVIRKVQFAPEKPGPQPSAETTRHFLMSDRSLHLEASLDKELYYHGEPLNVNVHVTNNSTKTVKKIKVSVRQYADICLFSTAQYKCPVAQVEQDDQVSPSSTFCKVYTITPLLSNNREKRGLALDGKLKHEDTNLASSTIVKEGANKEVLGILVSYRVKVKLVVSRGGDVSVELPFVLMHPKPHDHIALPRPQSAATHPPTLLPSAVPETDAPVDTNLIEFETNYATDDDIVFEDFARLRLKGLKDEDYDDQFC

UniProt P17870, sequence (P17870 whole entry S234C, stated change not applied): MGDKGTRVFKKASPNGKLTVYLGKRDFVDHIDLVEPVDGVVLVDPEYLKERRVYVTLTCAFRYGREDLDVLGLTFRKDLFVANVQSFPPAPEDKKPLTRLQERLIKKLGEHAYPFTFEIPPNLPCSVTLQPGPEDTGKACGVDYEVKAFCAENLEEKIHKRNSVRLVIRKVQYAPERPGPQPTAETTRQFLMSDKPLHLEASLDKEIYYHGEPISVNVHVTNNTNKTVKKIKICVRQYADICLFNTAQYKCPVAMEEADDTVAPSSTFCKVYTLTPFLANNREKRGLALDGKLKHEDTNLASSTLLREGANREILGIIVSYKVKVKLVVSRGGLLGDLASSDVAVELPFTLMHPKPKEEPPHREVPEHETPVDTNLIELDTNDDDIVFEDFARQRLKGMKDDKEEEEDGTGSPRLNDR

- Kd [1]: 6.1 µM
- Kd [2]: 4.4 µM
Substance: Alexa-568-labeled JNK3α2-His (from UniProt P53779 1-464) (enzyme)
